Laboratory results as given in publication PMC8298488, “Structure of the molecular bushing of the bacterial flagellar motor” (Nature Communications, 2021).

B1: FlgI (natural protein, UniProt P15930 20-365, looked up)
chain: ERIRDLTSVQGVRENSLIGYGLVVGLDGTGDQTTQTPFTTQTLNNMLSQLGITVPTGTNMQLKNVAAVMVTASYPPFARQGQTIDVVVSSMGNAKSLRGGTLLMTPLKGVDSQVYALAQGNILVGGAGASAGGSSVQVNQLNGGRITNGAIIERELPTQFGAGNTINLQLNDEDFTMAQQITDAINRARGYGSATALDARTVQVRVPSGNSSQVRFLADIQNMEVNVTPQDAKVVINSRTGSVVMNREVTLDSCAVAQGNLSVTVNRQLNVNQPNTPFGGGQTVVTPQTQIDLRQSGGSLQSVRSSANLNSVVRALNALGATPMDLMSILQSMQSAGCLRAKLEII
notes: FlgI, the periplasmic protein that forms the P ring, Salmonella enterica serovar Typhimurium; made as a precursor with a cleavable N-terminal signal peptide; 26 subunits form the P ring (C26 symmetry); Domains: FlgI-OR (1-11 and 160-230), FlgI-IRU (12-159), FlgI-IRL (231-346); also called P ring protein; I0; source: endogenous, Salmonella HK1002 cells; in the hook-basal body (HBB) purified by …
B2: FlgH (natural protein, UniProt P0A1N8 22-232, looked up)
chain: CAWIPAKPLVQGATTAQPIPGPVPVANGSIFQSAQPINYGYQPLFEDRRPRNIGDTLTIVLQENVSASKSSSANASRDGKTSFGFDTVPRYLQGLFGNSRADMEASGGNSFNGKGGANASNTFSGTLTVTVDQVLANGNLHVVGEKQIAINQGTEFIRFSGVVNPRTISGSNSVPSTQVADARIEYVGNGYINEAQNMGWLQRFFLNLSPM
notes: FlgH, the lipoprotein that forms the L ring, Salmonella enterica serovar Typhimurium; made as a precursor with a cleavable N-terminal signal peptide; the atomic model holds the whole 211 residues of FlgH; 26 subunits form the L ring (C26 symmetry); also called L ring protein; H0; source: endogenous, Salmonella HK1002 cells; in the hook-basal body (HBB) purified by sucrose density-gradient …

Key:
[1] = target: the molecule itself; assay: cryo-EM structure; LP ring part of hook-basal body (HBB) particle images, C26 symmetry applied, 3.5 Å; HBB purified from Salmonella HK1002; final buffer 20 mM Tris-HCl pH 8.0, 150 mM NaCl, 0.05% Triton X-100
FlgI = target: B1; assay: as above; settings: both partners purified

Binder | stoichiometry N [1] | binding result (FlgI)
B1 | 26 | 
B2 | 26 | binds
